Measured values reported in US8663912B2, “Fluorogenic substrate for ADAMTS13” (Washington University, priority 2011, dated 2014).
* marks the point of attachment. X1 = CC1(C)C(/C=C/C2=C(Cl)C(=C/C=C3/N(CCCCCC(=O)*)c4ccc5cc(S(=O)(=O)O)ccc5c4C3(C)C)/CCC2)=[N+](CCCS(=O)(=O)[O-])c2ccc(N(CCCS(=O)(=O)O)CCCS(=O)(=O)O)cc21; X2 = CC(C)(C)c1cc(/C=C/C=C2\N(CCCS(=O)(=O)O)c3ccc(S(=O)(=O)O)cc3C2(C)CCCC(=O)CCN2C(=O)CC(*)C2=O)c2ccc(N(CCCS(=O)(=O)[O-])CCCS(=O)(=O)O)cc2[o+]1

Assays:
[1] = molecular target: T1, ADAMTS13 (Homo sapiens, UniProt Q76LX8); assay: Effect of bilirubin and hemoglobin on FRETS-rVWF71 ADAMTS13 assays; format: biochemical; set-up: FRETS-rVWF71 cleavage by plasma ADAMTS13 (50 μL) was assessed in 200 μL reactions; from tissue; host or cells: human plasma or serum (pooled normal plasma, healthy donors, TTP patients); conditions: >20 mg/dL (250 μM) conjugated bilirubin
T1 sequence (Q76LX8 75-1427): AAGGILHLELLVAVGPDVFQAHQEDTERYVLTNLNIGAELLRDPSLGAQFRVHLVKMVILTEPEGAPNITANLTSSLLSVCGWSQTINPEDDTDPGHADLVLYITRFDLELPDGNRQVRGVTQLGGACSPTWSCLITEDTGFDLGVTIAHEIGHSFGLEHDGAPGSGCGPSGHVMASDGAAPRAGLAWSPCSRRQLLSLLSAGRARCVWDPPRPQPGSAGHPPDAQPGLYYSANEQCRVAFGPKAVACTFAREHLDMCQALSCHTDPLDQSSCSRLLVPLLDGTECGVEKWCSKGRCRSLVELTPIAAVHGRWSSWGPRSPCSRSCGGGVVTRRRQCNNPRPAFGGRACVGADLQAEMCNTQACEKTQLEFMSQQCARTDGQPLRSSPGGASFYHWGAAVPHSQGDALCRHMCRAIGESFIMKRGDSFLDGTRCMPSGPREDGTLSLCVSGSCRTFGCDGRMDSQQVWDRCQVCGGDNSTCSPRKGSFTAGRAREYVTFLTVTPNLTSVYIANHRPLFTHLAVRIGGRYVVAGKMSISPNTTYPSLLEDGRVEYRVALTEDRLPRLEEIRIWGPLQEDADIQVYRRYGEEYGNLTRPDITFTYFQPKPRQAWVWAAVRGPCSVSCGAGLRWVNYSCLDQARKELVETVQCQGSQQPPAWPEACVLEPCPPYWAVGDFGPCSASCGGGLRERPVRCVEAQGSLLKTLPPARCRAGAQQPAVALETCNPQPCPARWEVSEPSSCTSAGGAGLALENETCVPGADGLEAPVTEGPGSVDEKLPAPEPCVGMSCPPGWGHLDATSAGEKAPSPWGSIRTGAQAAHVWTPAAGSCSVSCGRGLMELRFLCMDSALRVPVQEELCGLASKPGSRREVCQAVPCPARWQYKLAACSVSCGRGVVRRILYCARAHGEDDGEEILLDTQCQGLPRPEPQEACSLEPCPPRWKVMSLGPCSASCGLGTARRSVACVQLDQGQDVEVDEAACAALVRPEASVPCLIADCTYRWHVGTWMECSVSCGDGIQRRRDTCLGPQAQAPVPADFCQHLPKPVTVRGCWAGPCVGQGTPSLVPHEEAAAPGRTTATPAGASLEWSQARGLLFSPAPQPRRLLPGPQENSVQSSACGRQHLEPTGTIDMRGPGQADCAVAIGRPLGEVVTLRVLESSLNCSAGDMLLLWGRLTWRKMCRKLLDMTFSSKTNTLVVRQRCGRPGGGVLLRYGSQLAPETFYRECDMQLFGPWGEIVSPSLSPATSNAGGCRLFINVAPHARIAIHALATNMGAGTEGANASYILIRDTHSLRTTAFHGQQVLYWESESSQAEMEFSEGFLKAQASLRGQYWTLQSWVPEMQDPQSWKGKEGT

[2] = Stability and pH dependence of fluorescence of FRETS-rVWF71; format: physicochemical
Method: In these experiments, DyLight 633 maleimide (Thermo Scientific, Waltham, Mass.) 1 mg/100 μL in dimethyl sulfoxide (DMSO) was added dropwise with stirring to peptide VWF71 (10 mg) in ≦2 mL of 100 mM sodium phosphate, pH 7.1, in the dark, and stirred overnight at room temperature. The product DyLight 633-rVWF71 was purified by HPLC on C18 using the TEAA/acetonitrile solvent system as described for the purification of VWF71. DyLight 633-rVWF71 was lyophilized and desalted on a small column of PD-10 in ≦2 mL of 100 mM sodium phosphate, pH 7.9. IRDye QC-1 N-hydroxysuccinimide ester 0.5 mg in 100 μL DMSO was added dropwise with stirring and the solution was stirred overnight at room temperature protected from light. The product FRETS-rVWF71 was purified by reverse phase HPLC, lyophilized, dissolved in ≦0.5 mL of deionized water and applied onto a column (7×230 mm) of Amberlite IR120 sodium form. FRETS-rVWF71 product was eluted with deionized water and lyophilized or concentrated by ultrafiltration to ≧250 μM. The concentration was verified by amino acid analysis (The Protein Chemistry Laboratory, Texas A&M University).

[3] = molecular target: T1, ADAMTS13; assay: ADAMTS13 inhibitor titer assay with FRETS-rVWF71 substrate; format: biochemical; set-up: from tissue; host or cells: human plasma or serum (pooled normal plasma, healthy donors, TTP patients); conditions: TTP patients with detectable inhibitor; printed 1.4-fold to >5-fold
Method: Plasma samples with ADAMTS13 protease activity <10% were tested for the presence of an ADAMTS13 inhibitor. Plasma samples were serially diluted two-fold with assay buffer (50 mM HEPES, pH 7.4, 150 mM NaCl, 10 mM CaCl2, and 0.05% Tween-20) to yield 8 dilutions. In duplicate, PNP (50 μL) was mixed with an equal volume (50 μL) of undiluted test plasma and each serially diluted sample. Control conditions included PNP mixed with an equal volume of cleavage buffer. The microplate containing the samples was sealed with adhesive film (Sealplate, Excel Scientific, Victorville, Calif.) and incubated at 37° C. for 1 h. Reaction was initiated by addition of 100 μL of assay buffer containing 2 μM FRETS-rVWF71. Fluorescence emission was monitored and initial reaction rates were determined.
The inhibitor titer was determined by fitting the initial reaction rates to a four parameter logistic model or sigmoidal dose response equation by nonlinear regression (Prism): Rate(D)=[…]/(1+10^((log T−log D)*H)) […]
A fixed amount of ADAMTS13 in PNP (100 μL) was preincubated with serially diluted plasma samples and assayed for ADAMTS13 activity. Reaction rates were analyzed according to a model for competitive sigmoidal dose-response inhibition to obtain the dilution of plasma at which ADAMTS13 activity is decreased by 50%, and the inverse of the dilution is the inhibitor titer (FIG. 7C). […]

X1-GQAPNLVYMVTGC(X2)PASDEIRRLPGDIQVVPIGVGPNANVQELERIGWPNAPILIQDFETLPREAPDLVLQR [FRETS-rVWF71]
sensitivity of assay to conjugated bilirubin [1]: insensitive
variation of fluorescence emission at 660 nm with pH ([2]; excitation 635 nm, uncleaved and fully cleaved substrate, between pH 5 and pH 10): < 7%
stability of final product ([2]; sodium salt): stable
stability on storage ([2]; working stocks at −20° C. thawed and refrozen repeatedly over several months): without any change in stability or chemical properties
inhibitor titers higher than with FRETS-VWF73 [3]: ≥ 1.4 fold
